Test results published in publication PMC2173104.

Experiments:
Assay in all cases: two-hybrid
[1] = target: Gal4 binding domain Iqg1p fusion protein, Iqg1p (1–1495) (S. cerevisiae) (UniProt Q12280)
[2] = target: Gal4 binding domain fusion of Iqg1p (1–823) (S. cerevisiae) (UniProt Q12280)
[3] = target: Gal4 binding domain fusion of Iqg1p (295–823) (S. cerevisiae) (UniProt Q12280)

| Substance | beta-galactosidase activity [1] [Miller units] | beta-galactosidase activity [2] [Miller units] | beta-galactosidase activity [3] [Miller units] |
| --- | --- | --- | --- |
| Cdc12p in pGAD-C2 (from UniProt P32468 1-407) (natural protein) | 23 |  |  |
| Myosin light chain protein Mlc1p in pGAD-C2 (from UniProt P53141 1-149) (natural protein) | 98.7 | 107 | 408 |
